Reference: paper doi:10.1101/723213

What was measured:
[1] = target: CENP-A_(101-225)–H4 heterodimer (Drosophila melanogaster), Q9V6Q2; test: SEC-MALS; conditions: remark: other sources report otherwise
[2] = target: CENP-A_(144-225)–H4 heterodimer (Drosophila melanogaster), Q9V6Q2; test: SEC-MALS; conditions: remark: other sources report otherwise
Sequence of CENP-A_(144-225)–H4 heterodimer (Drosophila melanogaster), Q9V6Q2 (Q9V6Q2 144-225, one chain of several): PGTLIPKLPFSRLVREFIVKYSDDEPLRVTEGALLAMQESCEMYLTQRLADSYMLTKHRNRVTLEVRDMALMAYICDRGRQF

Sequence of CENP-A_(101-225)–H4 heterodimer (Drosophila melanogaster), Q9V6Q2 (Q9V6Q2 101-225, one chain of several): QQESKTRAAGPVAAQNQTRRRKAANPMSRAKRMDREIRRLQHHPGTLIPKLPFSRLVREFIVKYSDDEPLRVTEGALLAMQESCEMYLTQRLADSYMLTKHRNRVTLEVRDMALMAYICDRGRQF

B1: His-CAL1_(1-160), Q9VEN2 1-160 (domain or fragment)
chain: MANAVVDEETLEAMVYERSKAWSSKMADFASLEDGMEIDVAEFDNLFHGEDEDPDLDDVAKEAVEDNVPDEAKLEMGHINATSVTELTLILCANEDNEAKAEIEEILNQTVPVVEEHKRKWREAGLDRILDTFDEKQIEHHVGRWMRRHNSVYLEASPPK
stoichiometry N (CAL1 per CENP-A/H4 heterodimer) [1]: 1
stoichiometry N (CAL1 per CENP-A/H4 heterodimer) [2]: 1
